Key:
[1] = target: T1, Ala-Val-AcLys-Phe-Nle (SIRT1 library hit, on bead)
T1 chain: AVKFMXXRM

[2] = target: T2, Pro-Gly-AcLys-Leu-Tyr (SIRT1 library hit, on bead)
T2 chain: PGKLYXXRM

AcSTGG(AcK)APR = target: T3, AcSTGG(AcK)APR
T3 chain: STGGKAPR

[3] = target: T4, Gly-Tyr-AcLys-Pro-Thr (SIRT1 library hit, on bead)
T4 chain: GYKPTXXRM

AY(AcK)EV = target: T5, AY(AcK)EV
T5 chain: AYKEV

[4] = target: T6, His-Trp-AcLys-Thr-His (SIRT1 library hit, on bead)
T6 chain: HWKTHXXRM

[5] = target: T7, Thr-Glu-AcLys-Gln-Glu (SIRT1 library hit, on bead)
T7 chain: TEKQEXXRM

[6] = target: T8, Phe-Glu-AcLys-Tyr-Me2Arg (SIRT1 library hit, on bead)
T8 chain: FEKYRXXRM

[7] = target: T9, Trp-Trp-AcLys-His-Gly (SIRT1 library hit, on bead) (not fully specified)
T9 chain: WWKHGXXRM

NH(AcK)II = target: T10, NH(AcK)II
T10 chain: NHKII

[8] = target: T11, His-Me2Arg-AcLys-Nle-Pro (SIRT1 library hit, on bead)
T11 chain: HRKMPXXRM

[9] = target: T12, Asp-Ser-AcLys-Gly-Ala (SIRT1 library hit, on bead)
T12 chain: DSKGAXXRM

[10] = target: T13, Thr-Pro-AcLys-Asn-Ala (SIRT1 library hit, on bead)
T13 chain: TPKNAXXRM

EL(AcK)AS = target: T14, EL(AcK)AS
T14 chain: ELKAS

AcTGG(AcK)APR = target: T15, AcTGG(AcK)APR
T15 chain: TGGKAPR

[11] = target: T16, Gly-Thr-AcLys-Thr-Gly (SIRT1 library hit, on bead)
T16 chain: GTKTGXXRM

[12] = target: T17, Trp-Gly-AcLys-Ser-Pro (SIRT1 library hit, on bead)
T17 chain: WGKSPXXRM

[13] = target: T18, Trp-His-AcLys-Phe-Glu (SIRT1 library hit, on bead) (not fully specified)
T18 chain: WHKFEXXRM

AcGG(AcK)APRKQ = target: T19, AcGG(AcK)APRKQ
T19 chain: GGKAPRKQ

VQ(AcK)II = target: T20, VQ(AcK)II
T20 chain: VQKII

QP(AcK)QI = target: T21, QP(AcK)QI
T21 chain: QPKQI

[14] = target: T22, Pro/Trp-Pro/Trp-AcLys-Ile-Thr (SIRT1 library hit, on bead)
T22 chain: WPKITXXRM

AcTGG(AcK)AP = target: T23, AcTGG(AcK)AP
T23 chain: TGGKAP

[15] = target: T24, Asp-Val-AcLys-Nle-His (SIRT1 library hit, on bead)
T24 chain: DVKMHXXRM

AcGG(AcK)APR = target: T25, AcGG(AcK)APR
T25 chain: GGKAPR

[16] = target: T26, Me2Arg-Pro-AcLys-Gln-Phe (SIRT1 library hit, on bead)
T26 chain: RPKQFXXRM

[17] = target: T27, Ile-Tyr-AcLys-Asn-Asp (SIRT1 library hit, on bead)
T27 chain: IYKNDXXRM

AcSTGG(AcK)AP = target: T28, AcSTGG(AcK)AP
T28 chain: STGGKAP

AcGG(AcK)APRK = target: T29, AcGG(AcK)APRK
T29 chain: GGKAPRK

[18] = target: T30, Me2Arg/Trp-Me2Arg/Trp-AcLys-Ile-Thr (SIRT1 library hit, on bead)
T30 chain: RWKITXXRM

Me2RP(AcK)SI = target: T31, Me2RP(AcK)SI
T31 chain: RPKSI

[19] = target: T32, Nle-Nle-AcLys-Gln-Gln (SIRT1 library hit, on bead)
T32 chain: MMKQQXXRM

[20] = target: T33, Pro-Ile-AcLys-Glu-Gln (SIRT1 library hit, on bead)
T33 chain: PIKEQXXRM

Me2RP(AcK)QF = target: T34, Me2RP(AcK)QF
T34 chain: RPKQF

AcKSTGG(AcK)AP = target: T35, AcKSTGG(AcK)AP
T35 chain: KSTGGKAP

WH(AcK)FQ = target: T36, WH(AcK)FQ
T36 chain: WHKFQ

[21] = target: T37, Asn-His-AcLys-Ile-Ile (SIRT1 library hit, on bead)
T37 chain: NHKIIXXRM

AcGG(AcK)AP = target: T38, AcGG(AcK)AP
T38 chain: GGKAP

HK(AcK)LM = target: T39, HK(AcK)LM
T39 chain: HKKLM

[22] = target: T40, Val-Gln-AcLys-Ile-Ile (SIRT1 library hit, on bead) (not fully specified)
T40 chain: VQKIIXXRM

[23] = target: T41, Ser-Asp-AcLys-Tyr-His (SIRT1 library hit, on bead)
T41 chain: SDKYHXXRM

[24] = target: T42, Me2Arg-Phe-AcLys-Pro-Glu (SIRT1 library hit, on bead)
T42 chain: RFKPEXXRM

[25] = target: T43, Trp-His-AcLys-Phe-Gln (SIRT1 library hit, on bead) (not fully specified)
T43 chain: WHKFQXXRM

[26] = target: T44, Asn-His-AcLys-Leu-Leu (SIRT1 library hit, on bead)
T44 chain: NHKLLXXRM

[27] = target: T45, Me2Arg-Ala-AcLys-Nle-Asp (SIRT1 library hit, on bead)
T45 chain: RAKMDXXRM

AcTGG(AcK)APRK = target: T46, AcTGG(AcK)APRK
T46 chain: TGGKAPRK

[28] = target: T47, Me2Arg/Pro-Me2Arg/Pro-AcLys-Ser-Ile (SIRT1 library hit, on bead)
T47 chain: RPKSIXXRM

QNle(AcK)GF = target: T48, QNle(AcK)GF
T48 chain: QLKGF

LNle(AcK)VG = target: T49, LNle(AcK)VG
T49 chain: LLKVG

[29] = target: T50, Ser-Tyr-AcLys-Gln-Trp (SIRT1 library hit, on bead)
T50 chain: SYKQWXXRM

WH(AcK)QQ = target: T51, WH(AcK)QQ
T51 chain: WHKQQ

[30] = target: T52, Leu-Asn-AcLys-Asp-Gln (SIRT1 library hit, on bead)
T52 chain: LNKDQXXRM

[31] = target: T53, Trp-Pro-AcLys-Trp-Gln (SIRT1 library hit, on bead) (not fully specified)
T53 chain: WPKWQXXRM

[32] = target: T54, Ile-Phe-AcLys-Thr-Phe (SIRT1 library hit, on bead)
T54 chain: IFKTFXXRM

[33] = target: T55, Gln-Pro-AcLys-Gln-Ile (SIRT1 library hit, on bead)
T55 chain: QPKQIXXRM

WP(AcK)QQ = target: T56, WP(AcK)QQ
T56 chain: WPKQQ

B1: human NAD+-dependent deacetylase SIRT1 (protein)
chain: MADEAALALQPGGSPSAAGADREAASSPAGEPLRKRPRRDGPGLERSPGEPGGAAPEREVPAAARGCPGAAAAALWREAEAEAAAAGGEQEAQATAAAGEGDNGPGLQGPSREPPLADNLYDEDDDDEGEEEEEAAAAAIGYRDNLLFGDEIITNGFHSCESDEEDRASHASSSDWTPRPRIGPYTFVQQHLMIGTDPRTILKDLLPETIPPPELDDMTLWQIVINILSEPPKRKKRKDINTIEDAVKLLQECKKIIVLTGAGVSVSCGIPDFRSRDGIYARLAVDFPDLPDPQAMFDIEYFRKDPRPFFKFAKEIYPGQFQPSLCHKFIALSDKEGKLLRNYTQNIDTLEQVAGIQRIIQCHGSFATASCLICKYKVDCEAVRGDIFNQVVPRCPRCPADEPLAIMKPEIVFFGENLPEQFHRAMKYDKDEVDLLIVIGSSLKVRPVALIPSSIPHEVPQILINREPLPHLHFDVELLGDCDVIINELCHRLGGEYAKLCCNPVKLSEITEKPPRTQKELAYLSELPPTPLHVSEDSSSPERTSPPDSSVIVTLLDQAAKSNDDLDVSESKGCMEEKPQEVQTSRNVESIAEQMENPDLKNVGSSTGEKNERTSVAGTVRKCWPNRVAKEQISRRLDGNQYLFLPPNRYIFHGAEVYSDSEDDVLSSSSCGSNSDSGTCQSPSLEEPMEDESEIEEFYNGLEDEPDVPERAGGAGFGTDGDDQEAINEAISVKQEVTDMNYPSNKS
- on-bead deacetylation, biotin and streptavidin quantum dot fluorescence, among the 45 brightest beads [1]: hits from the SIRT1 combinatorial library screen
- on-bead deacetylation, biotin and streptavidin quantum dot fluorescence, among the 45 brightest beads [2]: hits from the SIRT1 combinatorial library screen
- Relative kcat/Km (relative to AcTGG(AcK)APRK = 1) (AcSTGG(AcK)APR): 0.67
- on-bead deacetylation, biotin and streptavidin quantum dot fluorescence, among the 45 brightest beads [3]: hits from the SIRT1 combinatorial library screen
- kcat/Km (AY(AcK)EV): 5320 M⁻¹ s⁻¹
- on-bead deacetylation, biotin and streptavidin quantum dot fluorescence, among the 45 brightest beads [4]: hits from the SIRT1 combinatorial library screen
- on-bead deacetylation, biotin and streptavidin quantum dot fluorescence, among the 45 brightest beads [5]: hits from the SIRT1 combinatorial library screen
- on-bead deacetylation, biotin and streptavidin quantum dot fluorescence, among the 45 brightest beads [6]: hits from the SIRT1 combinatorial library screen
- on-bead deacetylation, biotin and streptavidin quantum dot fluorescence, among the 45 brightest beads [7]: hits from the SIRT1 combinatorial library screen
- kcat/Km (NH(AcK)II): 3630 M⁻¹ s⁻¹
- on-bead deacetylation, biotin and streptavidin quantum dot fluorescence, among the 45 brightest beads [8]: hits from the SIRT1 combinatorial library screen
- on-bead deacetylation, biotin and streptavidin quantum dot fluorescence, among the 45 brightest beads [9]: hits from the SIRT1 combinatorial library screen
- on-bead deacetylation, biotin and streptavidin quantum dot fluorescence, among the 45 brightest beads [10]: hits from the SIRT1 combinatorial library screen
- kcat/Km (EL(AcK)AS): 0.00139 M⁻¹ s⁻¹
- Relative kcat/Km (relative to AcTGG(AcK)APRK = 1) (AcTGG(AcK)APR): 0.64
- on-bead deacetylation, biotin and streptavidin quantum dot fluorescence, among the 45 brightest beads [11]: hits from the SIRT1 combinatorial library screen
- on-bead deacetylation, biotin and streptavidin quantum dot fluorescence, among the 45 brightest beads [12]: hits from the SIRT1 combinatorial library screen
- on-bead deacetylation, biotin and streptavidin quantum dot fluorescence, among the 45 brightest beads [13]: hits from the SIRT1 combinatorial library screen
- Relative kcat/Km (relative to AcTGG(AcK)APRK = 1) (AcGG(AcK)APRKQ): 0.8
- kcat/Km (VQ(AcK)II): ≥ 2470 M⁻¹ s⁻¹
- fold preference in catalytic activity over WP(AcK)QQ (QP(AcK)QI): QP(AcK)QI is favored over WP(AcK)QQ by 18-fold
- kcat/Km (QP(AcK)QI): 0.0272 M⁻¹ s⁻¹
- on-bead deacetylation, biotin and streptavidin quantum dot fluorescence, among the 45 brightest beads [14]: hits from the SIRT1 combinatorial library screen
- Relative kcat/Km (relative to AcTGG(AcK)APRK = 1) (AcTGG(AcK)AP): 0.54
- on-bead deacetylation, biotin and streptavidin quantum dot fluorescence, among the 45 brightest beads [15]: hits from the SIRT1 combinatorial library screen
- Relative kcat/Km (relative to AcTGG(AcK)APRK = 1) (AcGG(AcK)APR): 0.68
- on-bead deacetylation, biotin and streptavidin quantum dot fluorescence, among the 45 brightest beads [16]: hits from the SIRT1 combinatorial library screen
- on-bead deacetylation, biotin and streptavidin quantum dot fluorescence, among the 45 brightest beads [17]: hits from the SIRT1 combinatorial library screen
- Relative kcat/Km (relative to AcTGG(AcK)APRK = 1) (AcSTGG(AcK)AP): 1.61
- Relative kcat/Km (relative to AcTGG(AcK)APRK = 1) (AcGG(AcK)APRK): 1.01
- on-bead deacetylation, biotin and streptavidin quantum dot fluorescence, among the 45 brightest beads [18]: hits from the SIRT1 combinatorial library screen
- kcat/Km (Me2RP(AcK)SI): 8360 M⁻¹ s⁻¹
- on-bead deacetylation, biotin and streptavidin quantum dot fluorescence, among the 45 brightest beads [19]: hits from the SIRT1 combinatorial library screen
- on-bead deacetylation, biotin and streptavidin quantum dot fluorescence, among the 45 brightest beads [20]: hits from the SIRT1 combinatorial library screen
- kcat/Km (Me2RP(AcK)QF): 0.0147 M⁻¹ s⁻¹
- Relative kcat/Km (relative to AcTGG(AcK)APRK = 1) (AcKSTGG(AcK)AP): 0.71
- kcat/Km (WH(AcK)FQ): 3290 M⁻¹ s⁻¹
- on-bead deacetylation, biotin and streptavidin quantum dot fluorescence, among the 45 brightest beads [21]: hits from the SIRT1 combinatorial library screen
- Relative kcat/Km (relative to AcTGG(AcK)APRK = 1) (AcGG(AcK)AP): 1.72
- kcat/Km (HK(AcK)LM): 3110 M⁻¹ s⁻¹
- on-bead deacetylation, biotin and streptavidin quantum dot fluorescence, among the 45 brightest beads [22]: hits from the SIRT1 combinatorial library screen
- on-bead deacetylation, biotin and streptavidin quantum dot fluorescence, among the 45 brightest beads [23]: hits from the SIRT1 combinatorial library screen
- on-bead deacetylation, biotin and streptavidin quantum dot fluorescence, among the 45 brightest beads [24]: hits from the SIRT1 combinatorial library screen
- on-bead deacetylation, biotin and streptavidin quantum dot fluorescence, among the 45 brightest beads [25]: hits from the SIRT1 combinatorial library screen
- on-bead deacetylation, biotin and streptavidin quantum dot fluorescence, among the 45 brightest beads [26]: hits from the SIRT1 combinatorial library screen
- on-bead deacetylation, biotin and streptavidin quantum dot fluorescence, among the 45 brightest beads [27]: hits from the SIRT1 combinatorial library screen
- Relative kcat/Km (relative to AcTGG(AcK)APRK = 1) (AcTGG(AcK)APRK): 1
- on-bead deacetylation, biotin and streptavidin quantum dot fluorescence, among the 45 brightest beads [28]: hits from the SIRT1 combinatorial library screen
- kcat/Km (QNle(AcK)GF): 0.00237 M⁻¹ s⁻¹
- kcat/Km (LNle(AcK)VG): 0.00161 M⁻¹ s⁻¹
- on-bead deacetylation, biotin and streptavidin quantum dot fluorescence, among the 45 brightest beads [29]: hits from the SIRT1 combinatorial library screen
- fold difference in catalytic activity against WP(AcK)QQ (WH(AcK)QQ): 7 fold
- kcat/Km (WH(AcK)QQ): 0.00723 M⁻¹ s⁻¹
- on-bead deacetylation, biotin and streptavidin quantum dot fluorescence, among the 45 brightest beads [30]: hits from the SIRT1 combinatorial library screen
- on-bead deacetylation, biotin and streptavidin quantum dot fluorescence, among the 45 brightest beads [31]: hits from the SIRT1 combinatorial library screen
- on-bead deacetylation, biotin and streptavidin quantum dot fluorescence, among the 45 brightest beads [32]: hits from the SIRT1 combinatorial library screen
- on-bead deacetylation, biotin and streptavidin quantum dot fluorescence, among the 45 brightest beads [33]: hits from the SIRT1 combinatorial library screen
- kcat/Km (WP(AcK)QQ): 0.00154 M⁻¹ s⁻¹

From patent publication US20070105152
